# Results: PMC2791020 (The Journal of Biological Chemistry, 2009)
# B1: RIIβAB, truncated PKA regulatory subunit RIIβ (domain or fragment)
# chain: TRRASVCAEAYNPDEEEDDAESRIIHPKTDDQRNRLQEACKDILLFKNLDPEQMSQVLDAMFEKLVKEGEHVIDQGDDGDNFYVIDRGTFDIYVKCDGVGRCVGNYDNRGSFGELALMYNTPRAATITATSPGALWGLDRVTFRRIIVKNNAKKRKMYESFIESLPFLKSLEVSERLKVVDVIGTKVYNDGEQIIAQGDSADSFFIVESGEVRITMKRKGKSDIEENGAVEIARCLRGQYFGELALVTNKPRAASAHAIGTVKCLAMDVQAFERLLGPCMEIMKRNIATYEEQLV
# Molecular target: protein kinase A catalytic (C) subunit, wild type (UniProt P05132 2-351)
# Experiment: SPR
binder,measurement,value
B1,Kd,2.9 nM
same,koff,0.000316 s⁻¹
